The values below come from US10688077B2, “Inflammasome activation in myelodysplastic syndromes” (H. Lee Moffitt Cancer Center and Research Institute, Inc., priority 2015, dated 2020).

The test system of one test is MDS BM-MNC. Briefly: Pyroptosis flow cytometry panel, MDS BM-MNC incubated with autologous BM plasma. It counts as cell-based, human. The protocol: For human samples, treated and untreated BM-MNC were incubated overnight in IMDM, supplemented with 10% autologous BM plasma. Subsequently, cells were harvested, washed twice in 1×PBS, and stained with LIVE/DEAD Violet fluorescent reactive dye according to the manufacturer's protocol (Life Technologies). Cells were resuspended in 1×PBS with 2% BSA, and incubated at room temperature for 15 minutes to block non-specific binding. After washing, cells were stained with 30×FAM-FLICA® Caspase-1 and Caspase-3/7 solution at a ratio of 1:30 for 2 hours at 37° C. Cells were washed and stained for cell surface receptors using CD38:PE-CF594, CD33:BV711, CD34:APC (BD Biosciences), and CD71:PE-Cyanine7 (eBioscience). All antibodies were diluted 1:20, and cells were stained for 30 minutes at 4° C. Cells were washed, resuspended in 1× binding buffer, and stained with Annexin-V:Cy5.5 at a dilution of 1:20 for 15 minutes at room temperature (BD Biosciences). 1× binding buffer was added to a final volume of 400 μL. Sample acquisitions were carried out using a BD LSR II flow cytometer and FACSDiva software (BD Biosciences). Calibration of the flow cytometer was carried out prior to each experiment using Rainbow Mid-Range Fluorescent Particles (BD Biosciences). To establish fluorescence compensation settings, ArC Amine Reactive Compensation Beads were used for LIVE/DEAD Violet staining (Life Technologies), and BD CompBead Plus Anti-Mouse Ig κ/Negative Control (BSA) Compensation Plus Particles were used for surface receptor conjugates (BD Biosciences). Data were analyzed using FlowJo 9.7.5 software (FlowJo, LLC, Ashland, Oreg.).
Background: In flow cytometry, cells or beads pass a laser one at a time.

The subject of a further test is lower-risk MDS BM-MNC. The test can be described thus: qPCR of pyroptosis-related gene expression in lower-risk MDS BM-MNC. It counts as cell-based, human. The note with it: 24 hours, versus autologous BM plasma alone, n=5. The protocol:
PCR RNA was isolated from BM-MNC using the RNeasy Mini Kit (Qiagen). cDNA was produced using the iScript cDNA Synthesis Kit (Bio-Rad). Sequences for primers can be found in Table 1. GAPDH mRNA was used for transcript normalization. cDNA was amplified using the iQ SYBR Green Supermix and the CFX96 Real-Time PCR Detection System (Bio-Rad). PCR conditions were as follows: 10 minutes at 95° C., followed by 40 cycles of amplification (15 seconds at 95° C. and 1 minute at 60° C.). Relative gene expression was calculated using the […] method.

B1: CD33-IgG1: S100A9 high-affinity chimeric (CD33-IgG1) decoy receptor (protein)
chain: DPNFWLQVQESVTVQEGLCVLVPCTFFHPIPYYDKNSPVHGYWFREGAIISRDSPVATNKLDQEVQEETQGRFRLLGDPSRNNCSLSIVDARRRDNGSYFFRMERGSTKYSYKSPQLSVHVTDLTHRPKILIPGTLEPGHSKNLTCSVSWACEQGTPPIFSWLSAAPTSLGPRTTHSSVLIITPRPQDHGTNLTCQVKFAGAGVTTERTIQLNVTYVPQNPTTGIFPGDGSGKQETRAGVVH
modifications: left off: a dimerising Fc or GST
As for B1, the “reduction of the fraction of pyroptotic cells, maximum lineage-specific change, CD33+ cells” value in the test on MDS BM-MNC (CD33+ immature myeloids, 0.5 μg CD33-IgG1 or 0.1 μM IRAK4 inhibitor, 24 hours, autologous BM plasma, n=4) is listed as 68%. In addition, the “reduction of the fraction of pyroptotic cells, maximum lineage-specific change, CD71+ cells” value in the test with MDS BM-MNC (CD71+ erythroids, 0.5 μg CD33-IgG1 or 0.1 μM IRAK4 inhibitor, 24 hours, autologous BM plasma, n=4) was 64%. Further, the “fraction of pyroptotic cells across all lineages studied” value with MDS BM-MNC (MDS BM-MNC with autologous BM plasma (FIG. 20)) is “marked reduction”. For the same molecule, the “reduction of the fraction of pyroptotic cells, maximum lineage-specific change, progenitor cells” value with MDS BM-MNC (progenitor cells (CD34+CD38+), 0.5 μg CD33-IgG1 or 0.1 μM IRAK4 inhibitor, 24 hours, autologous BM plasma, n=4) stood at 23%. Moreover, the MDSC fraction result with MDS BM-MNC (short-term treatment) is on record as “significantly reduced”. Moreover, in the test on MDS BM-MNC (stem cells (CD34+CD38-), 0.5 μg CD33-IgG1 or 0.1 μM IRAK4 inhibitor, 24 hours, autologous BM plasma, n=4), the “reduction of the fraction of pyroptotic cells, maximum lineage-specific change, stem cells” value was found to be 44%. Also, in the test on lower-risk MDS BM-MNC, the CASP1 expression entry is recorded as “reduced”, the CASP3 expression result is given as “markedly reduced”, the IL-1β expression entry is “reduced” and the IL-18 expression result is listed as “reduced”. For the same molecule, the NLRP3 expression result with lower-risk MDS BM-MNC was “reduced”.
